# IntAct's records for PubMed 31515488
# B1: Protein SPMIP9 (Homo sapiens), Q96LM6 (parent)
# chain: MAGVKYPGQDPVDLDIYQSSHMVDYQPYRKHKYSRVTPQEQAKLDAQLRDKEFYRPIPNPNPKLTDGYPAFKRPHMTAKDLGLPGFFPSQEHEATREDERKFTSTCHFTYPASHDLHLAQGDPNQVLQSADFPCLVDPKHQPAAEMAKGYLLLPGCPCLHCHIVKVPILNRWGPLMPFYQ
# partner: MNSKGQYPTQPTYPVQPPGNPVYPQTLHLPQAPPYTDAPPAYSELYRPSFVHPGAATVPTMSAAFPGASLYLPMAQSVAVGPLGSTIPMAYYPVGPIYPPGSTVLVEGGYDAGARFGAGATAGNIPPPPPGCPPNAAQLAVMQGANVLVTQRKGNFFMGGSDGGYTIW
# B2: Protein FAM9B (Homo sapiens), Q8IZU0 (parent)
# chain: MAAWGKKHAGKDPVRDECEERNRFTETREEDVTDEHGEREPFAETDEHTGANTKKPEDTAEDLTAKRKRMKMDKTCSKTKNKSKHALRKKQLKRQKRDYIHSLKLLNVLEEYITDEQKEEEEEEGEEEELIRIFQEQQKKWQQYRSVRRERLKEMKLLRDQFVKALEDFEDLCDRVFSDEDSELDN
# partner: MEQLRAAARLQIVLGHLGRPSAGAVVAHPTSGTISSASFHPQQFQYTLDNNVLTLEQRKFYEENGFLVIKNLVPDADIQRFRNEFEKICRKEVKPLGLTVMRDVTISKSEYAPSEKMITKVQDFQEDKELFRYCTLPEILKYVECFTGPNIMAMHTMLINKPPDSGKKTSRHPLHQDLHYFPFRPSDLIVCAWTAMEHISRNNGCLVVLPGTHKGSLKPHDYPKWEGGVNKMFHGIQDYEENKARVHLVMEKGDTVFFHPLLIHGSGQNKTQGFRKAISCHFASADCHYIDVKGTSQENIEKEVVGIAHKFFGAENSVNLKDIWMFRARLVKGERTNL
# B3: Charged multivesicular body protein 7 (Homo sapiens), Q8WUX9 (parent)
# chain: MWSPEREAEAPAGGDPAGLLPPEWEEDEERMSFLFSAFKRSREVNSTDWDSKMGFWAPLVLSHSRRQGVVRLRLRDLQEAFQRKGSVPLGLATVLQDLLRRGELQRESDFMASVDSSWISWGVGVFLLKPLKWTLSNMLGDNKVPAEEVLVAVELLKEKAEEVYRLYQNSPLSSHPVVALSELSTLCANSCPDERTFYLVLLQLQKEKRVTVLEQNGEKIVKFARGPRAKVSPVNDVDVGVYQLMQSEQLLSRKVESLSQEAERCKEEARRACRAGKKQLALRSLKAKQRTEKRIEALHAKLDTVQGILDRIYASQTDQMVFNAYQAGVGALKLSMKDVTVEKAESLVDQIQELCDTQDEVSQTLAGGVTNGLDFDSEELEKELDILLQDTTKEPLDLPDNPRNRHFTNSVPNPRISDAELEAELEKLSLSEGGLVPSSKSPKRQLEPTLKPL
# partner: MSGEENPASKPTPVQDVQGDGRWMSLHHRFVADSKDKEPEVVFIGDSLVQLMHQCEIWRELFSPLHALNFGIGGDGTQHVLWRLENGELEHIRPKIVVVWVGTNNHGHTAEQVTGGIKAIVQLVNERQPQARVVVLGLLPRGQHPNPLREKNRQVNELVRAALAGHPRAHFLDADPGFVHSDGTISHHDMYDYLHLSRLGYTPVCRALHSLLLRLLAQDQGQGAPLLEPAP
# B4: Beta-taxilin (Homo sapiens), Q8N3L3 (parent)
# chain: MEANHSEQLSAERQSTPPGDSSSLPSHNGLEKEDGQDSPTPVQPPEKEASVHPDISEELNRQLEDIINTYGSAASTAGKEGSARASEQPENAESPDNEDGDCEETTEEAGREPVASGEPPTVKEPVSNKEQKLEKKILKGLGKEANLLMQNLNKLQTPEEKFDFLFKKYAELLDEHRTEQKKLKLLQKKQVQIQKEKDQLQGEHSRAILARSKLESLCRELQRHNKTLKEEALQRAREEEEKRKEITSHFQSTLTDIQGQIEQQSERNMKLCQENTELAEKLKSIIDQYELREEHLDKIFKHRELQQKLVDAKLEQAQEMMKEAEERHKREKEYLLNQAAEWKLQAKVLKEQETVLQAQLTLYSGRFEEFQSTLTKSNEVFATFKQEMDKTTKKMKKLEKDTATWKARFENCNKALLDMIEEKALRAKEYECFVMKIGRLENLCRALQEERNELHKKIRDAEISEKDDQSQHNSDEEPESNVSVDQEIDAEEVNSVQTAVKNLATAFMIIHHPESTPHQSKETQPEIGSSQESADAALKEPEQPPLIPSRDSESPLPPLTPQAEAEGGSDAEPPSKASNSPAGLGAETQCEGLPVGAQADQASWKPEAEASGQAPQAPTEASLQKMEADVPAPACAAEEHVAAMVPACEPSRQPPRAAAEELPVGASAGPQPRNVADTNLEGVD
# partner: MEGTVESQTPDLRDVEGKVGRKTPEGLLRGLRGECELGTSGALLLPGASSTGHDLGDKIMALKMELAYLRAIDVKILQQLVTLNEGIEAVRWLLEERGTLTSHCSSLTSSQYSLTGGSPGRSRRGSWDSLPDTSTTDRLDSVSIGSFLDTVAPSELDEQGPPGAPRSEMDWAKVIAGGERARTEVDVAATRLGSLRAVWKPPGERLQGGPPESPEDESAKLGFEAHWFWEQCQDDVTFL
# B5: C-C motif chemokine 4 (Homo sapiens), P13236 (parent)
# chain: MKLCVTVLSLLMLVAAFCSPALSAPMGSDPPTACCFSYTARKLPRNFVVDYYETSSLCSQPAVVFQTKRSKQVCADPSESWVQEYVYDLELN
# partner: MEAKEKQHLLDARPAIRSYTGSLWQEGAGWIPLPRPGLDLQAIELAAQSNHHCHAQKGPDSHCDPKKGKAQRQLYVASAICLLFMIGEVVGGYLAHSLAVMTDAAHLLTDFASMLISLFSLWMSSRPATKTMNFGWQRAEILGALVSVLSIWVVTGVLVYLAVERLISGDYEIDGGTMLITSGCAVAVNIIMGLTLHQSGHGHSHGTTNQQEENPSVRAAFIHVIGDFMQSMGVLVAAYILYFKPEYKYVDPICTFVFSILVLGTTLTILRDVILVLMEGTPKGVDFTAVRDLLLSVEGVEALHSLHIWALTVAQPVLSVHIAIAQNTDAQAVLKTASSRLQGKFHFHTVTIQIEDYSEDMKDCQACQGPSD
# B6: Progranulin (Homo sapiens), P28799 (parent)
# chain: MWTLVSWVALTAGLVAGTRCPDGQFCPVACCLDPGGASYSCCRPLLDKWPTTLSRHLGGPCQVDAHCSAGHSCIFTVSGTSSCCPFPEAVACGDGHHCCPRGFHCSADGRSCFQRSGNNSVGAIQCPDSQFECPDFSTCCVMVDGSWGCCPMPQASCCEDRVHCCPHGAFCDLVHTRCITPTGTHPLAKKLPAQRTNRAVALSSSVMCPDARSRCPDGSTCCELPSGKYGCCPMPNATCCSDHLHCCPQDTVCDLIQSKCLSKENATTDLLTKLPAHTVGDVKCDMEVSCPDGYTCCRLQSGAWGCCPFTQAVCCEDHIHCCPAGFTCDTQKGTCEQGPHQVPWMEKAPAHLSLPDPQALKRDVPCDNVSSCPSSDTCCQLTSGEWGCCPIPEAVCCSDHQHCCPQGYTCVAEGQCQRGSEIVAGLEKMPARRASLSHPRDIGCDQHTSCPVGQTCCPSLGGSWACCQLPHAVCCEDRQHCCPAGYTCNVKARSCEKEVVSAQPATFLARSPHVGVKDVECGEGHFCHDNQTCCRDNRQGWACCPYRQGVCCADRRHCCPAGFRCAARGTKCLRREAPRWDAPLRDPALRQLL
# partner: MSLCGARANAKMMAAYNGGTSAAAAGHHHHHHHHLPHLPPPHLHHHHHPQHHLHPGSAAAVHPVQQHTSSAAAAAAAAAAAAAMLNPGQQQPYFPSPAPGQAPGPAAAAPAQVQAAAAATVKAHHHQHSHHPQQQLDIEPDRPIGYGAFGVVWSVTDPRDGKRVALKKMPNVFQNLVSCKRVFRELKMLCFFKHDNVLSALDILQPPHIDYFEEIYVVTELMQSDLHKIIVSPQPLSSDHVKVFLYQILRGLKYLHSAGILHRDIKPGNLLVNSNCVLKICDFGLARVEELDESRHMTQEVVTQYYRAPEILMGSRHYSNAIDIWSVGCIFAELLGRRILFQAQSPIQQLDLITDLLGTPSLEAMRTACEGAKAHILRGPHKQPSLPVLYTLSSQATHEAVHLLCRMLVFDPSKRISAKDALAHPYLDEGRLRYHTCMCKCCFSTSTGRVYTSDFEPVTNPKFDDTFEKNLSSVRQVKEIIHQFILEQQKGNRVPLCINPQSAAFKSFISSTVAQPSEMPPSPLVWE
# B7: Hematopoietic prostaglandin D synthase (Homo sapiens), O60760 (parent)
# chain: MPNYKLTYFNMRGRAEIIRYIFAYLDIQYEDHRIEQADWPEIKSTLPFGKIPILEVDGLTLHQSLAIARYLTKNTDLAGNTEMEQCHVDAIVDTLDDFMSCFPWAEKKQDVKEQMFNELLTYNAPHLMQDLDTYLGGREWLIGNSVTWADFYWEICSTTLLVFKPDLLDNHPRLVTLRKKVQAIPAVANWIKRRPQTKL
# partner: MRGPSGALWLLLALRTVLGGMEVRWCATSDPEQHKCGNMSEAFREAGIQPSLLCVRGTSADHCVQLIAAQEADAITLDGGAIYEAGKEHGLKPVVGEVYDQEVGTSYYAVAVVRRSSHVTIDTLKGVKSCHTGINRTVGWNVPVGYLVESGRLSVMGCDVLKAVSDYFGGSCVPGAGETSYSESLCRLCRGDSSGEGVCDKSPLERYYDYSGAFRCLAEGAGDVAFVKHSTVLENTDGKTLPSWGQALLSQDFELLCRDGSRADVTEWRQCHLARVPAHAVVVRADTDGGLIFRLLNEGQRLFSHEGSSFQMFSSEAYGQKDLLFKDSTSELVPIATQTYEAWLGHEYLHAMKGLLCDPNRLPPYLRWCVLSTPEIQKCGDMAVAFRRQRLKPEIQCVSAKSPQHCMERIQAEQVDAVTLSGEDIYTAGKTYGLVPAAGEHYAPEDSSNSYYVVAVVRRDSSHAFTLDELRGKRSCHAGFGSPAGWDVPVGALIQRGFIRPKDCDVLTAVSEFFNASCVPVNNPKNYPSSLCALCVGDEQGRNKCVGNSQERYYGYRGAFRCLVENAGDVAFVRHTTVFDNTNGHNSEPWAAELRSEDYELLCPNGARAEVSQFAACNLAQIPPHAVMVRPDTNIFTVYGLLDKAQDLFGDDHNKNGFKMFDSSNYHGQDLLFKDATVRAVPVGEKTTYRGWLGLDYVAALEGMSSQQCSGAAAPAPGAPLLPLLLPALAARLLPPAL
# B8: LIM/homeobox protein Lhx4 (Homo sapiens), Q969G2 (parent)
# chain: MMQSATVPAEGAVKGLPEMLGVPMQQIPQCAGCNQHILDKFILKVLDRHWHSSCLKCADCQMQLADRCFSRAGSVYCKEDFFKRFGTKCTACQQGIPPTQVVRKAQDFVYHLHCFACIICNRQLATGDEFYLMEDGRLVCKEDYETAKQNDDSEAGAKRPRTTITAKQLETLKNAYKNSPKPARHVREQLSSETGLDMRVVQVWFQNRRAKEKRLKKDAGRHRWGQFYKSVKRSRGSSKQEKESSAEDCGVSDSELSFREDQILSELGHTNRIYGNVGDVTGGQLMNGSFSMDGTGQSYQDLRDGSPYGIPQSPSSISSLPSHAPLLNGLDYTVDSNLGIIAHAGQGVSQTLRAMAGGPTSDISTGSSVGYPDFPTSPGSWLDEMDHPPF
# partner: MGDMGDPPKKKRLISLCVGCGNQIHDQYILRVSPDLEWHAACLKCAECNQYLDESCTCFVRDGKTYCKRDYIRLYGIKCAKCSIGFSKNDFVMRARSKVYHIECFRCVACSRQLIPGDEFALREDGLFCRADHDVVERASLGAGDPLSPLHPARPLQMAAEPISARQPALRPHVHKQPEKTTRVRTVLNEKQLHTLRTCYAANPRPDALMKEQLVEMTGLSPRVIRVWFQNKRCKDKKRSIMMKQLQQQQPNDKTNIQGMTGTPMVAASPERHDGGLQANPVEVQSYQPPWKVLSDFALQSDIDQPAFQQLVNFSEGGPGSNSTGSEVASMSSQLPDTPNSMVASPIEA
# Variants of: B1
# Settings: with dazp2_human DAZAP2, Q15038
row,effect of a mutation on the interaction,Variant
1,with no effect,Y68H
2,with no effect,P177S

# Variants of: B2
# Settings: with pahx_human PHYH
row,effect of a mutation on the interaction,Variant
1,with no effect,R23H

# Variants of: B3
# Settings: with pa1b3_human PAFAH1B3, Q15102
row,effect of a mutation on the interaction,Variant
1,with no effect,R228C

# Variants of: B4
# Settings: with lura1_human LURAP1, Q96LR2
row,effect of a mutation on the interaction,Variant
1,with no effect,T361A
2,with no effect,T523I

# Variants of: B5
# Settings: with znt2_human SLC30A2, Q9BRI3
row,effect of a mutation on the interaction,Variant
1,disrupting interaction strength,A16T
2,with no effect,C18R
3,disrupting interaction strength,A21V

# Variants of: B6
# Settings: with nlk_human NLK
row,effect of a mutation on the interaction,Variant
1,with no effect,R19W

# Variants of: B7
# Settings: with trfm_human MELTF
row,effect of a mutation on the interaction,Variant
1,disrupting interaction strength,M128T

# Variants of: B8
# Settings: with isl1_human ISL1, P61371
row,effect of a mutation on the interaction,Variant
1,with no effect,N328S
